± gives the uncertainty stated by the source.
B1: Transcriptional regulator ERG, residues 117 to 197; numbered along this chain, P11308 (parent)
chain: NMTTNERRVIVPADPTLWSTDHVRQWLEWAVKEYGLPDVNILLFQNIDGKELCKMTKDDFQRLTPSYNADILLSHLHYLRE

Variants of: B1
Assay: abundance fitness (aPCA) (normalised: wild type 0, dead -1); higher = more abundant; growth selection in yeast, the domain comes from the species named
Conditions: Homo sapiens

Q: Which abundance fitness does the source give for NMTTNERRVIVPADPTLWSTDHVRQWLEWAVKEYGLPDVNILLFQNIDGKELSKMTKDDFQRLTPSYNADILLSHLHYLRE [C53S] here?
A: Its abundance fitness is -0.15 ± 0.046.

Q: For NMTTNERRVIVPADPTLWSTDHVRQWLEWAVKEYGLPKVNILLFQNIDGKELCKMTKDDFQRLTPSYNADILLSHLHYLRE [D38K], which abundance fitness is on record?
A: The abundance fitness was -0.091 ± 0.056.

Q: Which abundance fitness does the source give for NMTTNERRVIVPADPTLWSTDHVRQWLEWAVKEYGLPDVNILLFQNIDGKELCKMTKDDFQRLTPSYNADILLSHLHYLRD [E81D] here?
A: Its abundance fitness is 0.102 ± 0.14.

Q: Which abundance fitness does the source give for NMTTNERRVIVPADPTLWSTDHVRQWLEWAEKEYGLPDVNILLFQNIDGKELCKMTKDDFQRLTPSYNADILLSHLHYLRE [V31E] here?
A: Its abundance fitness is -0.154 ± 0.051.

Q: For NMTTNERRVIVPADPTLWSTDHVRQWLEWAVKEYGLPDVNILLFQNIDGKELCKMTKDDFQRLTPSYNADILLSHLHDLRE [Y78D], which abundance fitness is on record?
A: The abundance fitness was 0.228 ± 0.081.

Q: With NMTTNERRVIVPANPTLWSTDHVRQWLEWAVKEYGLPDVNILLFQNIDGKELCKMTKDDFQRLTPSYNADILLSHLHYLRE [D14N] as the variant, how does the abundance fitness read?
A: Its abundance fitness is -0.083 ± 0.07.

Q: For NMTTNERRVIVPADPTLWSTDHVRQWLEWAVKEYGLPDVNILLFQNIDGKELCKMTKDDFQRLTPSYNADILLLHLHYLRE [S74L], which abundance fitness is on record?
A: The abundance fitness was -0.217 ± 0.095.

Q: Which abundance fitness does the source give for NMTTNERRVIVPADPTLWSTDHVRQWLEWAVKEYGLADVNILLFQNIDGKELCKMTKDDFQRLTPSYNADILLSHLHYLRE [P37A] here?
A: The abundance fitness was 0.022 ± 0.048.

Q: Which abundance fitness does the source give for NMTTNERRVIVPADPTLWSTDHVRQWLEWAVKEYMLPDVNILLFQNIDGKELCKMTKDDFQRLTPSYNADILLSHLHYLRE [G35M] here?
A: The abundance fitness was -0.047 ± 0.06.

Q: With NMTTNERRVIVPADPTLWSTDHVRQWLEWAVKEYELPDVNILLFQNIDGKELCKMTKDDFQRLTPSYNADILLSHLHYLRE [G35E] as the variant, how does the abundance fitness read?
A: Its abundance fitness is 0.009 ± 0.042.

Q: With NMTTNERRVIVPADPTLWSTDHVRQWLEWAVKEYGLPDVNILLFQNIDGKELCKMTKDDFQRLTPSYNADILLSHLNYLRE [H77N] as the variant, how does the abundance fitness read?
A: The abundance fitness was 0.112 ± 0.1.

Q: With NMTTNERRVIVPADPTLWNTDHVRQWLEWAVKEYGLPDVNILLFQNIDGKELCKMTKDDFQRLTPSYNADILLSHLHYLRE [S19N] as the variant, how does the abundance fitness read?
A: Its abundance fitness is -0.008 ± 0.064.

Q: With NMTTNERRVIVPADPTLWSTDHVRQWLEWAVKEYGLPDVNILLFQNIDGKELCKMTKDDFQRLTPSYNADRLLSHLHYLRE [I71R] as the variant, how does the abundance fitness read?
A: Its abundance fitness is 0.113 ± 0.036.

Q: For NMTTNERRVIVPADPTLWSTDHVRQWLEWAVKEYGLPDVNILLFQNIDGKELCKMTKHDFQRLTPSYNADILLSHLHYLRE [D58H], which abundance fitness is on record?
A: Its abundance fitness is 0.202 ± 0.18.

Q: For NMTTNERRVIVPADPTLWSTDHVRQWLEWAVKEYGLPDVNILLFQNIDGKEMCKMTKDDFQRLTPSYNADILLSHLHYLRE [L52M], which abundance fitness is on record?
A: The abundance fitness was -0.324 ± 0.071.

Q: Which abundance fitness does the source give for NMTTNERRVIVPAMPTLWSTDHVRQWLEWAVKEYGLPDVNILLFQNIDGKELCKMTKDDFQRLTPSYNADILLSHLHYLRE [D14M] here?
A: Its abundance fitness is -0.537 ± 0.11.

Q: With NMTTNERRVIVPADPTLWSTDHVRQWLEWADKEYGLPDVNILLFQNIDGKELCKMTKDDFQRLTPSYNADILLSHLHYLRE [V31D] as the variant, how does the abundance fitness read?
A: The abundance fitness was -0.498 ± 0.12.

Q: For NMTTNERRVIVPADPTLWSTDHVRQWLEWAVKEYGLPDVNILLFQNIDLKELCKMTKDDFQRLTPSYNADILLSHLHYLRE [G49L], which abundance fitness is on record?
A: Its abundance fitness is -0.833 ± 0.096.

Q: For NMTTNERRVKVPADPTLWSTDHVRQWLEWAVKEYGLPDVNILLFQNIDGKELCKMTKDDFQRLTPSYNADILLSHLHYLRE [I10K], which abundance fitness is on record?
A: The abundance fitness was 0.109 ± 0.055.

Q: With NMTTNERRVIVPADPTLWSTDHVWQWLEWAVKEYGLPDVNILLFQNIDGKELCKMTKDDFQRLTPSYNADILLSHLHYLRE [R24W] as the variant, how does the abundance fitness read?
A: The abundance fitness was -0.522 ± 0.076.

Q: For NMTTNERRVIVPADPTLWSTDHVRQWLEPAVKEYGLPDVNILLFQNIDGKELCKMTKDDFQRLTPSYNADILLSHLHYLRE [W29P], which abundance fitness is on record?
A: The abundance fitness was -1.08 ± 0.31.

Q: Which abundance fitness does the source give for NMTTNERRVIVPADPTLWSTDHVRQWLEWAVKEYGLPDVNIALFQNIDGKELCKMTKDDFQRLTPSYNADILLSHLHYLRE [L42A] here?
A: Its abundance fitness is 0.014 ± 0.038.

Q: Which abundance fitness does the source give for NMTTNERRVIVPADPTLWSTDHVRQWLEWAVKEYGLPDVNILLFQNIDGKELCQMTKDDFQRLTPSYNADILLSHLHYLRE [K54Q] here?
A: The abundance fitness was -0.118 ± 0.12.

Q: For NMTTNERRVIVPADPTLWSTDHVRQWLEWAVKEYGLPDVNILLFQNIDGKELCKMTKDDFQRLTPSYNAEILLSHLHYLRE [D70E], which abundance fitness is on record?
A: The abundance fitness was 0.07 ± 0.049.

Q: With NMTTNERRVIVPADPTLWSTDHVRQWLEWAVKEYDLPDVNILLFQNIDGKELCKMTKDDFQRLTPSYNADILLSHLHYLRE [G35D] as the variant, how does the abundance fitness read?
A: Its abundance fitness is 0.063 ± 0.059.

Q: With NMTTNERRVIVPADPTLWSTDHVRQWLEWLVKEYGLPDVNILLFQNIDGKELCKMTKDDFQRLTPSYNADILLSHLHYLRE [A30L] as the variant, how does the abundance fitness read?
A: Its abundance fitness is -0.103 ± 0.046.

Q: With NMTTNERRVIVPADPTLWSTDHVRQWLEWAVKEYGLPDVNILLFQNIDGKELCKMTKDDFQRLTPSYNARILLSHLHYLRE [D70R] as the variant, how does the abundance fitness read?
A: The abundance fitness was -0.036 ± 0.038.

Q: With NMTTNERRVIVPADPTLWSTDHVRQWLEWAVKEYGLPDVDILLFQNIDGKELCKMTKDDFQRLTPSYNADILLSHLHYLRE [N40D] as the variant, how does the abundance fitness read?
A: Its abundance fitness is 0.072 ± 0.058.

Q: With NMTTNERRVIVPADPTLWSTDHVRQWLEWAVKEYGLPDVNILLFQNIDGKELCKMTKDDFQRLTPSYNADILLSHLYYLRE [H77Y] as the variant, how does the abundance fitness read?
A: The abundance fitness was -0.295 ± 0.18.

Q: For NMTTNERRVIVPADPTLWSTDHVRQWLEWAVKEYGLPDVNILLFVNIDGKELCKMTKDDFQRLTPSYNADILLSHLHYLRE [Q45V], which abundance fitness is on record?
A: Its abundance fitness is -0.154 ± 0.04.

Q: Which abundance fitness does the source give for NMTTNERRVIVPADPTLWSTDHVRQWLEWFVKEYGLPDVNILLFQNIDGKELCKMTKDDFQRLTPSYNADILLSHLHYLRE [A30F] here?
A: Its abundance fitness is -0.403 ± 0.14.

Q: Which abundance fitness does the source give for NMTTNERRVIVPADPTLWSTDHVRQWLEWAVKEYGLPDVNILLFQNIDGKELCKMTKDDFQRLTPSYNADILLSHLEYLRE [H77E] here?
A: Its abundance fitness is 0.099 ± 0.079.

Q: For NMTTNERRVIVPADPTLWSTDHVRQWLEWAVKEYGLPDVNILLFQNIDGKELCKMTKDDFQRLTPKYNADILLSHLHYLRE [S66K], which abundance fitness is on record?
A: The abundance fitness was -0.056 ± 0.071.

Q: For NMTTNERRVIVPADPTLWSTDHVRQWLEWAVKEYGLPDVNILLFQNIDGKELCKMTKQDFQRLTPSYNADILLSHLHYLRE [D58Q], which abundance fitness is on record?
A: The abundance fitness was -0.088 ± 0.083.
